Legend:
Assay in all cases: SPR
[1] = molecular target: AZD1061 (cilgavimab) (human)
AZD1061-TM (human) = molecular target: AZD1061-TM (human)
[2] = molecular target: AZD8895 (tixagevimab) (human)
AZD8895-TM (human) = molecular target: AZD8895-TM (human)

Q: How did the Kd [1] turn out when “human neonatal Fc receptor (from UniProt P55899;P61769)” was run?
A: The Kd was 283 nM.

Q: What about the Kd (AZD1061-TM (human)) of the same substance?
A: The Kd was 2360 nM.

Q: What about the Kd [2] of the same substance?
A: Its Kd is 272 nM.

Q: What about the Kd (AZD8895-TM (human)) of the same substance?
A: Its Kd is 2400 nM.

From paper doi:10.1101/2021.08.30.21262666
